Assay results from patent US20220275098A1 (NANTBIO, published 2022).

T1: CD30 (analyte in SPR) (UniProt P28908 19-379, limits assumed)
T1 construct: also called Cluster of Differentiation 30; Ki-1
T1 sequence (looked up): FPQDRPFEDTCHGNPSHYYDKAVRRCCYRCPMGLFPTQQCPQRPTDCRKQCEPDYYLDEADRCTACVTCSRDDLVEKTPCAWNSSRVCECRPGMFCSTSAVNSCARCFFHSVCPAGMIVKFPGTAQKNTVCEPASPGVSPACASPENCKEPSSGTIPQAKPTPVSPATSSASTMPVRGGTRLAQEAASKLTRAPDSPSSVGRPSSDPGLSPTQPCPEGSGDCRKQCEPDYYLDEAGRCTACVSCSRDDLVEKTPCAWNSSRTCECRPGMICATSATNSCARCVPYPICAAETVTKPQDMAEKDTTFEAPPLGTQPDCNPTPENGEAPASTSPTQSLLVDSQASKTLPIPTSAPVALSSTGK


Target: T1, CD30 (analyte in SPR)
Assay: SPR, 25° C. pH 7.4, IgG1 captured on chip, CD30 as analyte, average value
From the text: Using the VH and VL domains as noted above, the inventors prepared various CD30 binding constructs, and exemplary results for scFv and IgG1 constructs are shown below.

Kd	Binder
3 nM	anti-CD30 IgG1 (52-2) (antibody, V domains shown, also called aCD30 clone 52-2 IgG1) VH: EVQLVESGGGLVQPGGSLRLSCAASGFTFSSYYMHWVRQAPGKGLEWVSAISWSGGSTYYADSVKGRFTISRDNSKNTLYLQMNSLRAEDTAVYYCARDRFMPFIPNTLGFDVWGQGTLVTVSS VL: DIQMTQSPSSLSASVGDRVTITCQASQDISNYLNWYQQKPGKAPKLLIYVASNLETGVPSRFSGSGSGTDFTFTISSLQPEDIATYYCQQDADVPLTFGQGTKVEIK
2.5 nM	anti-CD30 IgG1 (52-38) (antibody, V domains shown, also called aCD30 clone 52-38 IgG1) VH: EVQLVESGGGLVQPGGSLRLSCAASGFTFSSYWMHWVRQAPGKGLEWVSAISWSGDSTYYADSVKGRFTISRDNSKNTLYLQMNSLRAEDTAVYYCARDRSATWYYLGLGFDVWGQGTLVTVSS VL: not shown
22.3 nM	anti-CD30 IgG1 (52-5) (antibody, V domains shown, also called aCD30 clone 52-5 IgG1) VH: EVQLVESGGGLVQPGGSLRLSCAASGFTFSSYYMHWVRQAPGKGLEWVSAISWSGGSTYYADSVKGRFTISRDNSKNTLYLQMNSLRAEDTAVYYCARDRFMPFIPNTLGFDVWGQGTLVTVSS VL: DIQMTQSPSSLSASVGDRVTITCQASQDISNYLNWYQQKPGKAPKLLIYDASNLETGVPSRFSGSGSGTDFTFTISSLQPEDIATYYCQQDADVPLTFGQGTKVEIK
